Measured values taken from PMC3660254, “Control of Translation and miRNA-Dependent Repression by a Novel Poly(A) Binding Protein, hnRNP-Q”.

Target: T1, hnRNP-Q2 (SYNCRIP, hnRNP-Q isoform 2) (mouse (cDNA from Krebs-2 cells), UniProt Q7TMK9-2 1-562)
T1 sequence: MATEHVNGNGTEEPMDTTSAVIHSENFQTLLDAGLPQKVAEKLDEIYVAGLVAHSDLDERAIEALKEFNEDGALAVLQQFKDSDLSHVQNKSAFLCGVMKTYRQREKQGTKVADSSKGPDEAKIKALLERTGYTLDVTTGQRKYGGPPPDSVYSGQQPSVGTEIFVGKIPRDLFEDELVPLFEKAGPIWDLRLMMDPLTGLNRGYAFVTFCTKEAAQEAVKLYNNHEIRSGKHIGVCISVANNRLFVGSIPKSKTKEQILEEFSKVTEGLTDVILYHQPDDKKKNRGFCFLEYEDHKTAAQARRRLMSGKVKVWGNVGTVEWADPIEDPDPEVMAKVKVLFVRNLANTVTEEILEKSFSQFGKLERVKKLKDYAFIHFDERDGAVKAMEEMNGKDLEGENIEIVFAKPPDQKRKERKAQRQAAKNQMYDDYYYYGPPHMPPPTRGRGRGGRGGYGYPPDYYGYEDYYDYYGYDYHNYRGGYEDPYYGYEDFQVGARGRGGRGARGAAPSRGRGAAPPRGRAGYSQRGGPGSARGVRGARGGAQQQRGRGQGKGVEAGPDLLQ
Assay: EMSA; apparent Kd, 2 mM Mg2+; three experiments; EMSA: 20 mM HEPES-KOH pH 7.3, ~100 mM KCl, 2 mM MgCl2, 1 mM DTT, 0.05% NP40, 5% glycerol, 0.1 mg/ml acetylated BSA (plus 2 ul protein in buffer A), 30 C 30 min, gel at 4 C; UV crosslinking in nuclease-treated RRL
Conditions: protein: recombinant; tags: C-terminal His6 (pET28a); label: 5' 32P; single strand

## AAAAAAAAAAAAAAAAAAAAAAAAAAAAAA (ssRNA) [oligo(A)30]
  Kd: ~30 nM
